Data as given in patent US20210388097A1 (SORRENTO THERAPEUTICS, published 2021).

Tests used:
[1] = target: T1, his-tagged cynomolgus BCMA protein (ACROBiosystems, catalog # BCA-052H7) (cynomolgus, UniProt A0A2K5UD97 1-53); experiment: SPR (Biacore T200), antibody captured on anti-human Fc chip, his-tagged cynomolgus BCMA as analyte
T1 construct: Bought protein; also called cyno BCMA; not shown: his tag
Description: (§1) Binding kinetics of anti-BCMA antibodies with his-tagged human BCMA protein (ACROBiosystems, catalog # BCA-H522y-100 ug, UniProt Q02223-1, SEQ ID NO:92) was measured using surface plasmon resonance (SPR). Kinetic interactions between the antibodies and his-tagged BCMA proteins were measured at 25° C. using Biacore T200 surface plasmon resonance (GE Healthcare). Anti-human fragment crystallizable region (Fc region) antibody was immobilized on a CM5 sensor chip to approximately 8000 resonance units (RU) using standard N-hydroxysuccinimide/N-Ethyl-N′-(3-dimethylaminopropyl) carbodiimide hydrochloride (NHS/EDC) coupling methodology. The anti-BCMA antibody (2 μg/mL) was captured for 60 seconds at a flow rate of 10 μL/minute. The his-tagged BCMA protein was run at […] different dilutions of 3.12, 6.25, 12.5, 25, 50, 100 and 200 nM, in a running buffer of 0.01 M HEPES pH 7.4, 0.15 M NaCl, 3 mM EDTA, 0.05% v/v Surfactant P20 (HBS-EP+). The 25 nM BCMA protein run was measured two times. All measurements were conducted in HBS-EP+ buffer with a flow rate of 30 μL/minute. A 1:1 (Langmuir) binding model was used to fit the data. […]
(§2) Cross reactivity of two of the anti-BCMA antibodies, BCA7-2C5 and BCA7-2E1, with his-tagged human, cynomolgus or mouse BCMA protein were analyzed by SPR in the manner as described above. […]

[2] = target: T2, his-tagged human BCMA protein (ACROBiosystems, catalog # BCA-H522y-100 ug) (human, UniProt Q02223 1-54); experiment: SPR (Biacore T200), antibody captured on anti-human Fc, his-tagged human BCMA as analyte; fit with ka1/kd1/ka2/kd2 (model not named)
T2 construct: limits of the bought construct are not otherwise stated; also called recombinant his-tagged human BCMA; not shown: his tag of the bought protein
T2 sequence: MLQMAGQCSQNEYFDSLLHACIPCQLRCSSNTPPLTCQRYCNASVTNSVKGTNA
Description: Binding kinetics of anti-BCMA antibodies with his-tagged human BCMA protein (ACROBiosystems, catalog # BCA-H522y-100 ug, UniProt Q02223-1, SEQ ID NO:92) was measured using surface plasmon resonance (SPR). Kinetic interactions between the antibodies and his-tagged BCMA proteins were measured at 25° C. using Biacore T200 surface plasmon resonance (GE Healthcare). Anti-human fragment crystallizable region (Fc region) antibody was immobilized on a CM5 sensor chip to approximately 8000 resonance units (RU) using standard N-hydroxysuccinimide/N-Ethyl-N′-(3-dimethylaminopropyl) carbodiimide hydrochloride (NHS/EDC) coupling methodology. The anti-BCMA antibody (2 μg/mL) was captured for 60 seconds at a flow rate of 10 μL/minute. The his-tagged BCMA protein was run at […] different dilutions of 3.12, 6.25, 12.5, 25, 50, 100 and 200 nM, in a running buffer of 0.01 M HEPES pH 7.4, 0.15 M NaCl, 3 mM EDTA, 0.05% v/v Surfactant P20 (HBS-EP+). The 25 nM BCMA protein run was measured two times. All measurements were conducted in HBS-EP+ buffer with a flow rate of 30 μL/minute. […] The SPR sensorgrams of anti-BCMA antibodies BCA7, GSK J6M0, BC4C9 and BC5C4 are shown in FIGS. 1, 2, 3 and 4, respectively, and their corresponding binding kinetics are listed in Table 3.
Binding kinetics of optimized anti-BCMA antibodies BCA7-2C5, BCA7-2D11, BCA7-2G2, BCA7-2E1, BCA7-2D8 and BCA7-2E8, with his-tagged human BCMA protein (ACROBiosystems, catalog # BCA-H522y-100 ug), were analyzed in the manner as described above.

[3] = target: T2, his-tagged human BCMA protein …; experiment: SPR (Biacore T200), antibody captured on anti-human Fc chip, his-tagged human BCMA as analyte
Description: as §1, §2

[4] = target: T3, his-tagged mouse BCMA protein (ACROBiosystems, catalog # BCA-M52H3) (mouse, UniProt O88472 1-49); experiment: SPR (Biacore T200), antibody captured on anti-human Fc chip, his-tagged mouse BCMA as analyte
T3 construct: Bought protein; not shown: his tag
T3 chain (looked up): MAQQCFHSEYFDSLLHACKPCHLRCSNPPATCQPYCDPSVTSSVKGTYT
Description: as §1, §2

BCMA on MM1R cells = target: T4, BCMA on MM1R cells (human, UniProt Q02223); experiment: flow cytometry on MM1R cells, 5x serial dilution, FITC goat anti-human IgG F(ab')2, GeoMean BL1-H
T4 construct: full length, on the surface of MM1R multiple myeloma cells; also called MM1R multiple myeloma cell line
T4 sequence (receptor, looked up): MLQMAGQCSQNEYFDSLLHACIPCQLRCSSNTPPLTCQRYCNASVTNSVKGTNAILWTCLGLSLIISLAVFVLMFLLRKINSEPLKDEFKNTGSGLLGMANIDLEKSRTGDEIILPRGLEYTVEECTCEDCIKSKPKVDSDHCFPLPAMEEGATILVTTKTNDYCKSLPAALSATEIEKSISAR
Description: Flow cytometry was used to test antibody binding to multiple myeloma cell line MM1R, using various anti-BCMA antibodies (5× serial dilution) and 80,000 cells per well. The secondary antibody was FITC AffiniPure FAB2 fragment goat anti-human IgG (H+L) (from Jackson Immuno Research). […] A BL-1 detector (IntelliCyt iQue Screener Plus) which detects at 530 nm was used. The geometric mean is reported.

T1 sequence (A0A2K5UD97 entry or part of it): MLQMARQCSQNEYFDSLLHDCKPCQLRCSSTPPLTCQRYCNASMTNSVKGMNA

B1: BCA7-2C5 antibody (antibody, V domains shown)
VH: EVQLVESGGGLVKPGGSLRLSCAASGFTSSTAWMSWVRQAPGKGLEWVGRIKSKSDGGTTDYAAPVKGRFTISRDDSKNTLFLQMNSLKTEDTAVYYCAKGGGTYGYWGQGTTVTVSS
VL: QSALTQPASVSGSPGQSVTISCTGTSSAHGGHYYVSWYQQHPGKAPKLMIYDVSNRPSGVSNRFSGSKSGNTASLTISGLQAEDEADYYCGSYTSSGSYVFGTGTKLTVL
In the case of B1, the Kd [1] is reported as 57 nM, the Kd [2] is reported as 19.4 nM and the ka1 [2] is reported as 1.37e+06 M⁻¹ s⁻¹. The ka2 [2] was 0.000847 s⁻¹, the kd1 [2] was 0.0422 s⁻¹ and the kd2 [2] was 0.00145 s⁻¹. The Kd [3] was 19.4 nM, the Kd [4] was 880 nM and the “EC50 (read off the curve)” value (BCMA on MM1R cells) was roughly 0.08 µg/mL.
